This is an account of results in patent US20240052052A1 (ANTENGENE BIOLOGICS, published 2024).

For experiment [1], the target named is T1, human CD24 (human, UniProt P25063 27-59, heavily glycosylated, GPI-anchored (as described in the background)).
T1 chain (looked up): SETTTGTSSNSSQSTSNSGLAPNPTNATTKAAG
Nature of the experiment: cell-based or functional assay.

Experiment [2] deals with T1, human CD24. Nature of the experiment: FACS, 5637 cells. On the procedure:
(§1) Sequences of some of antibodies from Table 1 were selected to generate and produce human IgG4 chimeric antibodies. […] The protocol for FACs analysis is described as follows: [0536] a. Digested cells using TrypLE™ Express Enzyme (IX); Centrifuged the harvested cells at 400 g for 5 min and discarding the supernatant. [0537] b. Washed the cells 2 times with cold FACS buffer by centrifuging at 400 g for 5 min and discarding the supernatant. [0538] c. […] Incubate at […] for 1 h. [0539] d. Washed the cells twice by using the condition in step b. Resuspended the cells with 100 μl/well diluted 2nd antibody, incubated at 4 degree for 1 h in the dark. [0540] e. Washed the cells twice by using the condition in step b. Resuspended the cells with 100 μl/well cold FACS buffer. Kept the cells in dark for FACS analysis.

In experiment [3] the target is T1, human CD24. Description: FACS, MCF7 cells. As to the method:
as §1
(Flow cytometry measures light scatter and fluorescence of single cells or particles in a stream.)

Experiment [4] concerns the target T1, human CD24. Nature of the experiment: FACS, Nalm1 cells. On the procedure:
as §1

Experiment [5] deals with T1, human CD24. Nature of the experiment: FACS, 293F-hCD24 cells. On the procedure: as §1
In experiment [6] the target is T1, human CD24. Description: FACS, MDA-MB-468 cells. As to the method:
as §1

Experiment [7] deals with T1, human CD24. Description: FACS, CHOK1-hCD24 cells. As to the method: as §1

B1: ch81A7A10-hIgG4 (antibody, V domains shown)
VH: QVQLKESGPGLVAPLQSLSITCTVSGFSLSSYGVSWVRQLPGKGLEWLGVIWGDGSTDYHSTLTSRLSFSKDNSESQVFLKLNSLQTDDTATYYCAIFYGYDEGFAYWGQGTLVTVSA
VL: ENVLTQSPAIMSAFLGEKVTMSCRASSTVNYMYWYQQKSDASPKVWIYYTSRLAPGVPARFSGSGSGNSFSLTISSMEGEDAATYYCQQFTSSPLTFGAGTKLELR
Take B1: in the experiment with human CD24 [1], the “EC50 (nM), phagocytosis against HT-29 cells” value (“EC50 (nM), phagocytosis” for short) stood at 0.157 nM and the “Max phagocytosis Index (%), phagocytosis against HT-29 cells” value (“Max phagocytosis Index (%), phagocytosis” for short) is 78.4%.

B2: ch100F2E3-hIgG4 (antibody, V domains shown)
VH: QVQLQQPGAELVRPGSSVKLSCKTSDYTFTSYWMDWVKQRPGQGLEWIGNIYPSDSKTHSNQKFRDKATLTVDKSSSTAYMQLNSLTSEDSAVYYCARRGGYYGYAMDYWGQGTSVTVSS
VL: DIVMTQSPSSLSVSAGEKVTMSCKSSQSLLNSGNQDNYLAWYQQKPGQPPKLLIYGASIRESGVPDRFTGSGSGTDFTLTISSVQAEDLAVYYCQNDHSYPYTFGGGTKLEIK
notes: chimeric
For the molecule B2, the concentration for a half-maximal effect (EC50) (as a rule, the concentration needed to bring the measured effect to its halfway point) in the experiment with human CD24 [2] was 3.42 nM; in the experiment with human CD24 [3], 6.85 nM; in the experiment with human CD24 [4], 2.78 nM; in the experiment with human CD24 [5], 3.73 nM; with human CD24 [6] it was 7.39 nM; with human CD24 [7] it was over 100 nM. The “Max MFI” value with human CD24 [2] came to 20200; in the experiment with human CD24 [3], 7960; in the experiment with human CD24 [4], 77700; in the experiment with human CD24 [5] it was 60400; with human CD24 [6], 71900; with human CD24 [7], 59300. Also, the “EC50 (nM), phagocytosis” value with human CD24 [1] came to 1.9 nM. Further, the “Max phagocytosis Index (%), phagocytosis” value with human CD24 [1] worked out at 71.2%.

B3: ch56A7E3-hIgG4 (antibody, V domains shown)
VH: EVQLQQSGPELVKPGASVKIPCKASGYTFTAYNMDWVKQSHGMSLEWIGDINPINGGTIYNQNFEGKATLTVDKSSSTAYLELRSLTSEDTAVYYCARRGSYYYGSSHYALDFWGQGTSVSVSS
VL: DIQMTQITSSLSASLGDRVTITCRASQDISNYLNWYQQKPDGTVKLLIYYTSRLLSGVPSRFSGSGSGTDYSLTISNLEQEDIATYFCQQDHTLPRTFGGGTKLEIR
notes: chimeric
In the case of B3, the EC50 in the experiment with human CD24 [2] amounted to 139 nM; with human CD24 [3] it was 83.7 nM; in the experiment with human CD24 [4], 66.4 nM; with human CD24 [5], 3.7 nM; in the experiment with human CD24 [6] it was 18.7 nM; with human CD24 [7], 3.04 nM. The “Max MFI” value was found to be 61100 with human CD24 [2]; 22800 in the experiment with human CD24 [3]; 80300 with human CD24 [4]; 57100 with human CD24 [5]; 54200 in the experiment with human CD24 [6]; 54100 in the experiment with human CD24 [7]. In addition, the “EC50 (nM), phagocytosis” value in the experiment with human CD24 [1] was found to be 4.74 nM. Further, the “Max phagocytosis Index (%), phagocytosis” value in the experiment with human CD24 [1] is 55.2%.

B4: ch81A1F8-hIgG4 (antibody, V domains shown)
VH: EVQLQQSGPELVKPGASVKISCKATGYLFTGYYMNWVKQSPEKSLEWIGEINPNTGDTNNNQKFKAKATMTVDRSSSTAYMQLKRLTSEDSAVYYCVRRDYGTSLDYWGQGTTLTVSS
VL: DVQITQSPSYLAASPGETITINCRASKSINKYLAWYQEKPGKTNKLLIHSGSTLQSGIPSRFSGSRSGTDFTLTISNLEPEDFAMYYCQQHNEYPITFGAGTKLELK
notes: chimeric; also called chAb81A1F8; ch81A1F8-IgG4
For the molecule B4, the half-maximal effective concentration (EC50) with human CD24 [2] was determined as 2.47 nM; with human CD24 [3], 2.31 nM; with human CD24 [4], 1.31 nM; with human CD24 [5] it was 3.35 nM; with human CD24 [6] it was 5.75 nM; with human CD24 [7], 3240 nM. In addition, the “Max MFI” value with human CD24 [2] was found to be 54100; with human CD24 [3], 25400; with human CD24 [4], 101000; in the experiment with human CD24 [5], 117000; with human CD24 [6] it was 90800; with human CD24 [7], 85300. In the experiment with human CD24 [1], the “EC50 (nM), phagocytosis” value turned out to be 0.098 nM. Further, the “Max phagocytosis Index (%), phagocytosis” value in the experiment with human CD24 [1] was 76.6%.

B5: ch110D4G4-hIgG4 (antibody, V domains shown)
VH: EVQLQQSGPGLVKPGASVKISCRASGYLFTGYYMNWVKQSPEKSLEWIGEINPNTGDPRYDQKFKAKATLTVDRSSSTAYMHLKSLTSEDSAVYFCARRDYGTSLDYWGQGTTLTVTS
VL: DVQITQSPSYLAASPGETITINCRASKSISKYLAWYQEKPGKTNKLLIYSGSTLQSGIPSRFSGSGSGSDFTLTISSLEPEDFAMYYCQQHNEYPLTFGAGTKLELK
notes: chimeric; also called chAb110D4G4
As to B5, the EC50 in the experiment with human CD24 [2] came out at 2.18 nM; with human CD24 [3], 2.01 nM; with human CD24 [4], 1.95 nM; with human CD24 [5], 2.82 nM; with human CD24 [6], 5.44 nM; with human CD24 [7] it was 35.4 nM. The “Max MFI” value in the experiment with human CD24 [2] came to 49900; with human CD24 [3] it was 22700; in the experiment with human CD24 [4] it was 111000; with human CD24 [5], 112000; with human CD24 [6], 89700; in the experiment with human CD24 [7], 99500.

B6: ch33E7E12-hIgG1 (antibody, V domains shown)
VH: EVKLEESGGGLVQPGGSMKLSCFVSGFTFSNSWMNWVRQSPEKGLEWVAQIQLKSDNYATRYVESVRGRFIISRDDSKSSVSLQMNNLRTEDTGIYYCSSGTDYWGQGTTLTVSS
VL: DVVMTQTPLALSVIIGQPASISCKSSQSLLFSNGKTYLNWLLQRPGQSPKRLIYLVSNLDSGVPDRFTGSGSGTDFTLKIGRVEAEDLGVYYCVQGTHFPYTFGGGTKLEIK
notes: chimeric
Take B6: the 50% effective concentration (EC50) with human CD24 [2] was 6.44 nM; with human CD24 [3], 4.35 nM; with human CD24 [4], 5.8 nM; in the experiment with human CD24 [5], 3.55 nM; in the experiment with human CD24 [6], 9.07 nM; with human CD24 [7], 2.27 nM. Also, the “Max MFI” value with human CD24 [2] came out at 42900; with human CD24 [3] it was 20600; with human CD24 [4] it was 109000; with human CD24 [5], 80900; with human CD24 [6], 56700; in the experiment with human CD24 [7] it was 62100. Also, in the experiment with human CD24 [1], the “EC50 (nM), phagocytosis” value worked out at 0.042 nM. Further, the “Max phagocytosis Index (%), phagocytosis” value with human CD24 [1] was 80.4%.

B7: ch33E7E12-hIgG4 (antibody, V domains shown)
VH: EVKLEESGGGLVQPGGSMKLSCFVSGFTFSNSWMNWVRQSPEKGLEWVAQIQLKSDNYATRYVESVRGRFIISRDDSKSSVSLQMNNLRTEDTGIYYCSSGTDYWGQGTTLTVSS
VL: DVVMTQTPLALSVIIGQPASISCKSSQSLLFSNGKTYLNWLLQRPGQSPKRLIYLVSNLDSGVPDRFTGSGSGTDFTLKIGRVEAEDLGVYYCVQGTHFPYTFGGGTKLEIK
notes: chimeric
As to B7, the 50% effective concentration (EC50) amounted to 7.27 nM with human CD24 [2]; 4.75 nM with human CD24 [3]; 11.8 nM in the experiment with human CD24 [4]; 4.56 nM in the experiment with human CD24 [5]; 6.8 nM in the experiment with human CD24 [6]; 2.66 nM in the experiment with human CD24 [7]. The “Max MFI” value was determined as 25600 with human CD24 [2]; 16100 with human CD24 [3]; 34400 in the experiment with human CD24 [4]; 55200 with human CD24 [5]; 20100 in the experiment with human CD24 [6]; 56600 in the experiment with human CD24 [7]. The “EC50 (nM), phagocytosis” value with human CD24 [1] is 3.25 nM. In the experiment with human CD24 [1], the “Max phagocytosis Index (%), phagocytosis” value is 33.3%.
